Experimental findings from publication PMC5146272, “Structure of the RBM7–ZCCHC8 core of the NEXT complex reveals connections to splicing factors” (Nature Communications, 2016) are described below.

Data set [1] deals with T1, RBM7^1–137 (Z-tagged RBM7, residues 1–137) (human, UniProt Q9Y580 1-137).
T1 construct: source: bacterial cells, in lysate (pull-downs); purified (MST)
T1 sequence (looked up): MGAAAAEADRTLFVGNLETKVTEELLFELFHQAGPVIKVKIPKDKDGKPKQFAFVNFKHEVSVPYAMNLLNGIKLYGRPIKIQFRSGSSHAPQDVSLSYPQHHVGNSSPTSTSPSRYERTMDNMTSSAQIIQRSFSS
Kind of data set: MST; 30 nM ZCCHC8^Pro-(GS)3-eYFP constant, unlabelled RBM7 1-137 titrated from 0.2 nM to 6.0 μM; 50 mM Tris/HCl pH 7.4, 150 mM NaCl, 10 mM MgCl2, 0.05% Tween 20; temperature jump analysis; triplicates. As to conditions: both partners purified.

For data set [2], the target named is T2, RBM7 1-98 (RRM);ZCCHC8Pro (proline-rich segment) (Homo sapiens;Homo sapiens, UniProt Q9Y580;Q6NZY4 1-98;285-324, |).
T2 sequence 1: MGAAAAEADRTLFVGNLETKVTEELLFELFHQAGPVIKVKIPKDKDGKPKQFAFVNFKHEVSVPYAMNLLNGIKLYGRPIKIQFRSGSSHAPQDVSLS
T2 sequence 2: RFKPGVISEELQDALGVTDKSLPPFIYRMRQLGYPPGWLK
As to the kind of experiment: fluorescence anisotropy; affinity stated similar to RBM7 alone; KD value only in figure inset; 20 mM Tris/HCl pH 7.5, 150 mM NaCl, 2 mM DTT, 20 °C, 10 nM RNA, 50 µl. The conditions noted are these: protein: recombinant;recombinant; tags: ;; copies: 1;1; label: 5'-6-FAM; single strand.

A further data set concerns the target T3, RBM7 1-98 (RRM) (Homo sapiens, UniProt Q9Y580 1-98).
T3 sequence: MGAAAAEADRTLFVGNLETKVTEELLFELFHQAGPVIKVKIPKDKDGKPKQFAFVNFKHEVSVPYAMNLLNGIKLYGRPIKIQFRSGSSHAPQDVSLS
Kind of data set: fluorescence anisotropy; KD value only in inset of the figure, not in material; 20 mM Tris/HCl pH 7.5, 150 mM NaCl, 2 mM DTT, 20 °C, 10 nM RNA, 50 µl. The conditions noted are these: protein: recombinant; label: 5'-6-FAM; single strand.

B1: ZCCHC8^Pro-(GS)3-eYFP fusion protein (domain or fragment, human, UniProt Q6NZY4 285-324, looked up)
chain: RFKPGVISEELQDALGVTDKSLPPFIYRMRQLGYPPGWLK
notes: eYFP joined by a Gly-Ser linker serves as the fluorophore of the MST; source: purified; not shown: (GS)3 linker and eYFP, C-terminal, kept
In data set [1], B1 displayed a Kd of 28 nM.

B2: U8 RNA (ssRNA)
RNA: UUUUUUUU
As to B2, the binding result (in data set [2]; in the data set with RBM7 1-98 (RRM)) was “binds” each time.
